Measured values as given in patent US20100150950A1, “HUMAN ANTIBODIES THAT BIND CD70 AND USES THEREOF” (Medarex, Inc., priority 2006, published 2010).

Molecular target: T1, CD70 expressed on the surface of 786-O renal cell carcinoma cells (Homo sapiens, UniProt P32970)
T1 construct: natively expressing CD70+ human cancer cell line 786-0 cells; endogenous in cells; host or cells: 786-O (ATCC CRL-1932), A-498 (HTB-44), ACHN (CRL-1611), Caki-1 (HTB-46), Caki-2 (HTB-47)
T1 sequence (P32970 1-193): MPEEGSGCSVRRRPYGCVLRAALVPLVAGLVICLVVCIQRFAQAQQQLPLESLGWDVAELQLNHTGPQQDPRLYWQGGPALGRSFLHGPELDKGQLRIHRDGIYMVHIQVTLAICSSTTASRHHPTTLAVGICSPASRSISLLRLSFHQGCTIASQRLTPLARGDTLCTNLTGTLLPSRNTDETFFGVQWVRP
Experiment: Flow cytometry binding to 786-O cells
Method: Anti-CD70 antibodies were tested for binding to renal cell carcinoma cells expressing CD70 on their cell surface by flow cytometry.
The renal cell carcinoma cell lines A-498 (ATCC Accession No. HTB-44), 786-O (ATCC Accession No. CRL-1932), ACHN (ATCC Accession No. CRL-1611), Caki-1 (ATCC Accession No. HTB-46) and Caki-2 (ATCC Accession No. HTB-47) were each tested for antibody binding. Binding of the HuMAb 2H5 anti-CD70 human monoclonal antibody was assessed by incubating 1×10^5 cells with 2H5 at a concentration of 1 μg/ml. The cells were washed and binding was detected with a FITC-labeled anti-human IgG Ab. Flow cytometric analyses were performed using a FACSCalibur flow cytometry (Becton Dickinson, San Jose, Calif.). The anti-CD70 monoclonal antibody 2H5 bound to the renal carcinoma cell lines A-498, 786-O, ACHN, Caki-1 and Caki-2.
The renal cell carcinoma cell lines 786-O and A-498 were tested for binding of the HuMAb anti-CD70 human monoclonal antibodies 2H5, 8B5, 10B4 and 18E7 at different concentrations. Binding of the anti-CD70 human monoclonal antibodies was assessed by incubating 5×10^5 cells with antibody at a starting concentration of 50 μg/ml and serially diluting the antibody at a 1:3 dilution. The cells were washed and binding was detected with a PE-labeled anti-human IgG Ab. Flow cytometric analyses were performed using a FACSCalibur flow cytometry (Becton Dickinson, San Jose, Calif.). The results are shown in FIG. 18A (786-O) and FIG. 18B (A-498). […]
Binding of the HuMAb 2H5 and 69A7 anti-CD70 human monoclonal antibodies to the renal cell carcinoma cell line 786-O was assessed by incubating 2×10^5 cells with either 2H5 or 69A7 at a concentration of 10 μg/ml. […] The cells were washed and binding was detected with a FITC-labeled anti-human IgG Ab. […]
The renal cell carcinoma cell line 786-O was tested for binding of the HuMAb anti-CD70 human monoclonal antibody 69A7 at different concentrations. Binding of the anti-CD70 human monoclonal antibodies was assessed by incubating 5×10^5 cells with antibody at a starting concentration of 10 μg/ml and serially diluting the antibody at a 1:3 dilution. The cells were washed and binding was detected with a PE-labeled anti-human IgG Ab. […]
The Daudi lymphoma cell line and 786-O renal carcinoma cell were further tested for antibody binding. Binding of the HuMAb 69A7 anti-CD70 human monoclonal antibody was assessed by incubating 2×10^5 cells with 69A7 at a concentration of 1 μg/ml. The cells were washed and binding was detected with a FITC-labeled anti-human IgG Ab. […] The anti-CD70 monoclonal antibody 69A7 bound to the Daudi lymphoma cell line and 786-O renal carcinoma cell line, as measured by the mean fluorescent intensity (MFI) of staining. […]

Row | Molecule | binding to 786-O at different concentrations (MFI) (1:3 serial dilution from 50 μg/ml (69A7: from 10 μg/ml)) | binding to 786-O cells (antibody 1 μg/ml, FITC-labeled anti-human IgG) | binding to 786-O cells (antibody 10 μg/ml) | relative binding to 786-0 cells (30 to 0.01 ug/ml, flow cytometry)
1 | anti-CD70 human monoclonal antibody 69A7 (antibody, V domains shown, Human IgG from hybridoma; also called HuMAb 69A7; FITC-conjugated 69A7) VH: QVQLQESGPGLVKPSETLSLTCTVSGGSVSSDYYYWSWIRQPPGKGLEWLGYIYYSGSTNYNPSLKSRVTISVDTSKNQFSLKLRSVTTADTAVYYCARGDGDYGGNCFDYWGQGTLVTVSS VL: EIVLTQSPATLSLSPGERATLSCRASQSVSSYLAWYQQKPGQAPRLLIFDASNRATGIPARFSGSGSGTDFTLTISSLEPEDFAVYYCQQRSNWPLTFGGGTKVEIK | concentration dependent | bound | bound | 
2 | 2H5 NF: 2H5 HuMAb lacking fucosyl residues, expressed in CHO cell line Ms704-PF (antibody, V domains shown) VH: QVQLVESGGGVVQPGRSLRLSCAASGFTFSSYIMHWVRQAPGKGLEWVAVISYDGRNKYYADSVKGRFTISRDNSKNTLYLQMNSLRAEDTAVYYCARDTDGYDFDYWGQGTLVTVSS VL: EIVLTQSPATLSLSPGERATLSCRASQSVSSYLAWYQQKPGQAPRLLIYDASNRATGIPARFSGSGSGTDFTLTISSLEPEDFAVYYCQQRTNWPLTFGGGTKVEIK |  |  |  | binds at lower concentration than 1F4 and 1F4 NF
